Numbering of substitutions follows the chain as printed.
B1: PMX237 (monospecific anti-canine CD20, canine IgG-B, lambda C5) (antibody, V domains shown)
VH: EVQLVESGGDLVKPGGSLRLSCVASGLTFSRYYMNWVRQAPGKGLQWVAYINSGGSSTDYADAVKGRFTISRDNAKNTLYLQMNSLRVEDTAVYYCASFDYWGQGTLVTVSS
VL: SYVLTQLPSKKVTLKQSAHITCGGDNIGSKSVHWYQQKLGQAPVLIIYHDSSRPTGIPERFSGANSGNTATLTISGALAEDEADYYCQVWDSSANVFGGGTHLTVLG
B2: PMX268 (monospecific anti-canine CD20, canine IgG-B, lambda C5) (antibody, V domains shown)
VH: EVQLVESGGDLMKPGGSLRLSCVASGITFSGYHMSWVRQAPGKGLQWVAFINSGRKNTAYADAVKGRFTISRDNAKNTLYLQMNSLRAEDTAIYYCTTLEFWGQGTLVTVSS
VL: B1 VL with K11N, S17P, S31N, H49Y, S52R, A64V, S75N, V89M
B3: PMX232 (monospecific anti-canine CD20, canine IgG-B, lambda C5) (antibody, V domains shown)
VH: EMQLVESGGDLVKPGESLRLSCVASGISFNNYHMSWVRQAPGKGLQWVAYIDSVGTSTTYADAVKGRFTISRDNAKNTLYLQMNSLRAEDTAVYYCTTFDSWGQGTLVTVSS
VL: B1 VL with K11N, S17P, H49Y, S52R
B4: PMX270 (monospecific anti-canine CD20, canine IgG-B, lambda C5) (antibody, V domains shown)
VH: EVQLVESGGDLVKPGGSLRLSCVASGFTFSRYYMTWVRQAPGKGLQWVAYINSDRRSTTYADAVKGRFTISRDNAKNTLYLQMNSLRAEDTAVYYCTTLEYWGQGTLVTVSS
VL: B1 VL with K11N, S17P, H49Y, S52R, S75N
B5: PMX241 (monospecific anti-canine CD20, canine IgG-B, lambda C5) (antibody, V domains shown)
VH: B2 VH with M12V, K56R, N57S, A59S
VL: B1 VL with K11N, S17P, H49Y, S52R, S75N, V89M, A94V
B6: PMX271 (monospecific anti-canine CD20, canine IgG-B, lambda C5) (antibody, V domains shown)
VH: AVQLVESGGDLVKPGGSLRLSCVASGITFSRYHMSWVRQAPGKGLQWVAYINSGGSATSYTDAVKGRFSISRDNGKNTLYLQMNSLRVEDSAVYYCTTLDLWGQGTLVTVSS
VL: B1 VL with K11N, S17P, H49Y, S52R, S75N, V89M
B7: PMX269 (monospecific anti-canine CD20, canine IgG-B, lambda C5) (antibody, V domains shown)
VH: EVRLVESGGDLVKPGGSLRLSCVASGLTFNRYYMSWVRQGPGKGLQWVAYIDSGGSPTTYADTVKGRFTISRDNAKNTLYLQMNSLRVEDTAVYYCTTLEYWGQGTLVTVSS
VL: B1 VL with K11N, S17P, H49Y, S92T
B8: PMX255 (monospecific anti-canine CD20, canine IgG-B, lambda C5) (antibody, V domains shown)
VH: EVQLVESGGDLVKPGGSLRLSCVASGFTFSRYHMSWIRQAPGKGLQWVAFIDSDGSGARYADAVKGRFTFSRDNAKNTLYLQMNSLRAEDTAVYYCTSLEYWGQGTLVTVSS
VL: B1 VL with K11N, S17P, I27V, H49Y, S52R
B9: PMX235 (monospecific anti-canine CD20, canine IgG-B, lambda C5) (antibody, V domains shown)
VH: B4 VH with F27I, T35N, S53T, D54G, R55E, R56S, T59I, A61S
VL: B1 VL with K11N, S17P, V44A, H49Y, S51N, S52R, A94D
B10: PMX254 (monospecific anti-canine CD20, canine IgG-B, lambda C5) (antibody, V domains shown)
VH: B8 VH with A58T, N84S, Y101F
VL: B1 VL with K11N, S17P, H49Y
B11: PMX257 (monospecific anti-canine CD20, canine IgG-B, lambda C5) (antibody, V domains shown)
VH: EVQLVESGGDLVKPGGSLRLSCVASGFTFSSYHMSWVRQAPGKGLQWVAYINSGGSSTSYADAVKGRFTISRDNAYSTLFLQMNNLRAEDTAVYYCTTLDSWGQGTLVTVSS
VL: B1 VL with K11N, S17P, H49Y
B12: PMX238 (monospecific anti-canine CD20, canine IgG-B, lambda C5) (antibody, V domains shown)
VH: B4 VH with Y33H, T35S, Y50F, S53T, D54G, R56S, T59N, K65A, T97S, E100D
VL: B1 VL with K11N, S17P, H49Y
B13: PMX256 (monospecific anti-canine CD20, canine IgG-B, lambda C5) (antibody, V domains shown)
VH: B11 VH with Y76K, S77N, F80Y, L81F, N85S, L99F
VL: B1 VL with K11N, S17P, H49Y
B14: PMX263 (monospecific anti-canine CD20, canine IgG-B, lambda C5) (antibody, V domains shown)
VH: B1 VH with L27F, D59S, V88A, E89D, A97T
VL: B1 VL with K11N, S17P, H49Y
B15: PMX261 (monospecific anti-canine CD20, canine IgG-B, lambda C5) (antibody, V domains shown)
VH: B1 VH with L27I, N52D, S57P, D59T, N77K, T78A, V88A, A97T
VL: B1 VL with K11N, S17P, H49Y, Y86F
B16: PMX243 (monospecific anti-canine CD20, canine IgG-B, lambda C5) (antibody, V domains shown)
VH: B1 VH with L27F, Y33H, N35S, S57N, A61T, V88A, A97S, F99L
VL: B1 VL with K11N, S17P, H49Y, S51R, S52R, S92R, A94G
B17: PMX262 (monospecific anti-canine CD20, canine IgG-B, lambda C5) (antibody, V domains shown)
VH: B1 VH with L27I, S57P, D59T, V88A, A97T
VL: B1 VL with K11N, S17P, V44I, H49Y, S51T
B18: PMX248 (monospecific anti-canine CD20, canine IgG-B, lambda C5) (antibody, V domains shown)
VH: B11 VH with S31R, S57T, Y76K, S77N, F80Y, N85S, V93I, Y95F, T98S, S101Y
VL: B1 VL with K11N, S17P, V44I, H49Y, S52R
B19: PMX259 (monospecific anti-canine CD20, canine IgG-B, lambda C5) (antibody, V domains shown)
VH: B1 VH with L27F, Y33H, N35S, D59S, V88A
VL: B1 VL with K11N, S17P, H49Y, S52N, A94G
B20: PMX249 (monospecific anti-canine CD20, canine IgG-B, lambda C5) (antibody, V domains shown)
VH: B1 VH with L27F, Y33H, N35S, D59S, V88A
VL: B1 VL with S1P, K11N, S17P, H49Y, S52R
B21: PMX247 (monospecific anti-canine CD20, canine IgG-B, lambda C5) (antibody, V domains shown)
VH: B1 VH with L27F, Y33H, N35S, S57P, T58S, D59S, V88A, A97T, Y101C
VL: B1 VL with K11N, S17P, H49Y, S52R
B22: PMX240 (monospecific anti-canine CD20, canine IgG-B, lambda C5) (antibody, V domains shown)
VH: B4 VH with F27L, Y33H, T35S, Y50F, D54G, R56S, S57D, L99F, E100D
VL: B1 VL with K11N, S17P, V44A, H49Y
B23: PMX252 (monospecific anti-canine CD20, canine IgG-B, lambda C5) (antibody, V domains shown)
VH: B1 VH with L27F, Y33H, N35S, D59S, V88A, F99L
VL: B1 VL with K11N, S17P, H49Y, S92I
B24: PMX267 (monospecific anti-canine CD20, canine IgG-B, lambda C5) (antibody, V domains shown)
VH: EMQLVESGGDLVKPGGSLRLSCVASGFTFSRYHMSWVRQAPGKGLQWVAYIDSDGINTNYADAVKGRFTISRDNAKNTLYLQMNSLRAEDTALYYCTTFDYWGQGTLVTVSS
VL: B1 VL with K11N, S17P, H49Y, A94G
B25: PMX242 (monospecific anti-canine CD20, canine IgG-B, lambda C5) (antibody, V domains shown)
VH: B24 VH with M2I, D52N, S53T, D54G, I56S, L93V, F99L, Y101S
VL: B1 VL with S9F, K11N, S17P, H49Y, S52R, A94V
B26: PMX260 (monospecific anti-canine CD20, canine IgG-B, lambda C5) (antibody, V domains shown)
VH: B8 VH with S30R, I37V, F50Y, D54G, A58T, R59S, F70I, T97S, E100D
VL: B1 VL with K11N, S17P, H49Y, S52R, A94G
B27: PMX266 (monospecific anti-canine CD20, canine IgG-B, lambda C5) (antibody, V domains shown)
VH: B11 VH with V2L, S31R, Y76K, S77N, F80Y, N85S, L99F
VL: B1 VL with K11N, S17P, H49Y, S92I
B28: PMX245 (monospecific anti-canine CD20, canine IgG-B, lambda C5) (antibody, V domains shown)
VH: B1 VH with Y33H, N35S, A63G, V88A, A97T, F99L, D100E, Y101D
VL: B1 VL with K11N, S17P, H49Y, A94V
B29: PMX246 (monospecific anti-canine CD20, canine IgG-B, lambda C5) (antibody, V domains shown)
VH: B24 VH with D52N, D54G, I56S, N57P, L93V, F99Y, Y101Q
VL: B1 VL with K11S, S17P, H49Y, S92T
B30: PMX258 (monospecific anti-canine CD20, canine IgG-B, lambda C5) (antibody, V domains shown)
VH: B1 VH with S53T, D59S, V88A
VL: B1 VL with K11N, S17P, H49Y
B31: PMX264 (monospecific anti-canine CD20, canine IgG-B, lambda C5) (antibody, V domains shown)
VH: B4 VH with Y33H, T35S, Y50F, S53T, D54G, R56M, T59N, T98S, E100D
VL: B1 VL with K11N, S17P, H49Y
B32: PMX253 (monospecific anti-canine CD20, canine IgG-B, lambda C5) (antibody, V domains shown)
VH: B1 VH with L4M, L27F, S56G, D59S, V88A, A97S
VL: B1 VL with K11N, S17P, H49Y
B33: PMX239 (monospecific anti-canine CD20, canine IgG-B, lambda C5) (antibody, V domains shown)
VH: B1 VH with L27F, Y50F, N52T, D59S, A61G, V88A, A97T
VL: B1 VL with K11N, S17P, H49Y, D50A

Biological target: T1, canine CD20 on cells (HEK293, MDCK II, CLBL-1 or native B cells) (canine, UniProt Q3C2E2 1-297)
T1 construct: also called dCD20; cCD20
T1 chain: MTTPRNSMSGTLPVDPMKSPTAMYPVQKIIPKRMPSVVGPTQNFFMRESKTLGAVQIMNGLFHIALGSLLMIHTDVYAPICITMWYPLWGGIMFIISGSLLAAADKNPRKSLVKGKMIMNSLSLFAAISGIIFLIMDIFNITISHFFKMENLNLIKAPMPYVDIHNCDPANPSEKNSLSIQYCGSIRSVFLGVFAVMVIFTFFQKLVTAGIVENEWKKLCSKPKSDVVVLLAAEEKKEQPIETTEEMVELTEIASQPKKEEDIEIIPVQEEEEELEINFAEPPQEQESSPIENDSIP
Assay: flow cytometry, canine CD20 HEK293 cells, 10 µg/ml, FITC anti-canine IgG
Experimental: A CD20 binding screen was performed on candidate proteins produced from the canine CD20 immunisation as described in Examples 2 and 3. CHO cells supernatants containing candidate antibodies were diluted to 10 μg/ml in FACS buffer (PBS containing 3% FBS) and screened for their ability to bind canine CD20 expressed on cell surface. In brief, 1-2×10⁵ canine CD20-expressing HEK cells were incubated with candidate mAbs for one hour at 4° C., at a fixed concentration of 10 μg/ml followed by incubation with 5 μg/ml of FITC-conjugated anti-canine IgG secondary antibody (Bethyl Laboratories) for 1 hour at 4° C. Cells incubated with anti-canine IgG FITC secondary antibody and without primary anti-canine CD20 antibody, or with isotype control primary antibody, were used as negative controls. The data were acquired on either a Beckman Coulter CytoFLEX or a BD Accuri C6 Plus flow cytometer and analysed using FlowJo software.

Binder	binding result
B1	binds
B2	binds
B3	binds
B4	binds
B5	binds
B6	binds
B7	binds
B8	binds
B9	binds
B10	binds
B11	binds
B12	binds
B13	binds
B14	binds
B15	binds
B16	binds
B17	binds

Binder	binding result
B18	binds
B19	binds
B20	binds
B21	binds
B22	binds
B23	binds
B24	binds
B25	binds
B26	binds
B27	binds
B28	binds
B29	binds
B30	binds
B31	binds
B32	binds
B33	binds

— US20240209086A1 (PETMEDIX, published 2024)
